Measured values taken from the FLAb antibody collection.

Assay: patients with anti-drug antibodies; higher = more immunogenic

Row | Protein | patients with anti-drug antibodies [%]
1 | unnamed (protein) chain 1: EVQLVESGGGLVQPGGSLRLSCAASGFTFTDYTMDWVRQAPGKGLEWVADVNPNSGGSIYNQRFKGRFTLSVDRSKNTLYLQMNSLRAEDTAVYYCARNLGPSFYFDYWGQGTLVTVSS chain 2: DIQMTQSPSSLSASVGDRVTITCKASQDVSIGVAWYQQKPGKAPKLLIYSASYRYTGVPSRFSGSGSGTDFTLTISSLQPEDFATYYCQQYYIYPYTFGQGTKVEIK | 2.8
2 | unnamed (protein) chain 1: QVQLVQSGAEVKKPGASVKVSCKASGYIFSNYWIQWVRQAPGQGLEWMGEILPGSGSTEYAQKFQGRVTMTADTSTSTAYMELSSLRSEDTAVYYCARYFFGSSPNWYFVWGQGT chain 2: DIQMTQSPSLSASVGDRVTITCGASENIYGALNWYQRKPGKAPKLLIYGATNLADGVPSRFSGSGSGTDYTLTISSLQPEDFATYYCQNVLNTPLTFGQGTKVEIK | 0
3 | unnamed (protein) chain 1: QVQLVQSGAEVKKPGSSVKVSCKASGYTFTDQTIHWMRQAPGQGLEWIGYIYPRDDSPKYNENFKGKVTITADKSTSTAYMELSSLRSEDTAVYYCAIPDRSGYAWFIYWGQGTLVTVSS chain 2: DIQMTQSPSSLSASVGDRVTITCKASRDVAIAVAWYQQKPGKVPKLLIYWASTRHTGVPSRFSGSGSRTDFTLTISSLQPEDVADYFCHQYSSYPFTFGSGTKLEIK | 24
4 | unnamed (protein) chain 1: EVQLVESGGGLVQPGGSLRLSCAASGFTFSSYWMSWVRQAPGKGLEWVAYIKQDGNEKYYVDSVKGRFTISRDNAKNSLYLQMNSLRAEDTAVYYCAREGILWFGDLPTFWGQGTLVTVSS chain 2: DIQMTQSPSSLSASVGDRVTITCRASQGISNWLAWYQQKPEKAPKSLIYAASSLQSGVPSRFSGSGSGTDFTLTISSLQPEDFATYYCQQYDSYPRTFGQGTKVEIK | 0
5 | unnamed (protein) chain 1: QVQLVQSGAEVKKPGASVKVSCKASGYYTEAYYIHWVRQAPGQGLEWMGRIDPATGNTKYAPRLQDRVTMTRDTSTSTVYMELSSLRSEDTAVYYCASLYSLPVYWGQGTTVTVSS chain 2: DVVMTQSPLSLPVTLGQPASISCKSSQSLLYSDAKTYLNWFQQRPGQSPRRLIYQISRLDPGVPDRFSGSGSGTDFTLKISRVEAEDVGVYYCLQGTHYPVLFGQGTRLEIK | 0
6 | unnamed (protein) chain 1: QVQLQQSGTVLARPGASVKMSCKASGYSFTRYWMHWIKQRPGQGLEWIGAIYPGNSDTSYNQKFEGKAKLTAVTSASTAYMELSSLTHEDSAVYYCSRDYGYYFDFWGQGTTLTVSS chain 2: QIVSTQSPAIMSASPGEKVTMTCSASSSRSYMQWYQQKPGTSPKRWIYDTSKLASGVPARFSGSGSGTSYSLTISSMEAEDAATYYCHQRSSYTFGGGTKLEIK | 1.5
7 | unnamed (protein) chain 1: EVQLVQSGGGLVKPGGSLRLSCAASGFTFSSFAMHWVRQAPGKGLEWISVIDTRGATYYADSVKGRFTISRDNAKNSLYLQMNSLRAEDTAVYYCARLGNFYYGMDVWGQGTTVTVSS chain 2: EIVLTQSPGTLSVSPGERATLSCRASQSIGSSLHWYQQKPGQAPRLLIKYASQSLSGIPDRFSGSGSGTDFTLTISRLEPEDFAVYYCHQSSRLPHTFGQGTKVEIK | 0
8 | unnamed (protein) chain 1: QVQLQQSGAELVKPGASVKLSCKASGYTFTSYDINWVRQRPEQGLEWIGWIFPGDGSTKYNEKFKGKATLTTDKSSSTAYMQLSRLTSEDSAVYFCAREDYYDNSYYFDYWGQGTTLTVSS chain 2: DIQMTQTTSSLSASLGDRVTISCRASQDISNYLNWYQQKPDGTVKLLIYYTSRLHSGVPSRFSGSGSGTDYSLTISNLEQEDIATYFCQQGNTLPWTFGGGTKLEIK | 85
9 | unnamed (protein) chain 1: EVQLVESGGGLVQPGGSLRLSCAVSGLSLTSNSVNWIRQAPGKGLEWVGLIWSNGDTDYNSAIKSRFTISRDTSKSTVYLQMNSLRAEDTAVYYCAREYYGYFDYWGQGTLVTVSS chain 2: DIQMTQSPSSLSASVGDRVTITCLASEGISSYLAWYQQKPGKAPKLLIYGANSLQTGVPSRFSGSGSATDYTLTISSLQPEDFATYYCQQSYKFPNTFGQGTKVEVK | 5
10 | unnamed (protein) chain 1: QVQLVQSGAEVKKPGASVKVSCKASGHIFSNYWIQWVRQAPGQGLEWMGEILPGSGHTEYTENFKDRVTMTRDTSTSTVYMELSSLRSEDTAVYYCARYFFGSSPNWYFDVWGQGTLVTVSS chain 2: DIQMTQSPSSLSASVGDRVTITCGASENIYGALNWYQQKPGKAPKLLIYGATNLADGVPSRFSGSGSGTDFTLTISSLQPEDFATYYCQNVLNTPLTFGQGTKVEIK | 0.2
11 | unnamed (protein) chain 1: EVQLVESGGGLVQPGGSLRLSCAASGYTFSSYWIEWVRQAPGKGLEWIGEILPGGGDTNYNEIFKGRATFSADTSKNTAYLQMNSLRAEDTAVYYCTRRVPIRLDYWGQGTLVTVSS chain 2: DIQLTQSPSSLSASVGDRVTITCKASQSVDYEGDSFLNWYQQKPGKAPKLLIYAASNLESGVPSRFSGSGSGTDFTLTISSLQPEDFATYYCQQSNEDPLTFGQGTKVEIK | 2.6
12 | unnamed (protein) chain 1: EVQLLESGGGLVQPGGSLRLSCAASGFTFSSYIMMWVRQAPGKGLEWVSSIYPSGGITFYADTVKGRFTISRDNSKNTLYLQMNSLRAEDTAVYYCARIKLGTVTTVDYWGQGTLVTVSS chain 2: QSALTQPASVSGSPGQSITISCTGTSSDVGGYNYVSWYQQHPGKAPKLMIYDVSNRPSGVSNRFSGSKSGNTASLTISGLQAEDEADYYCSSYTSSSTRVFGTGTKVTVL | 5
13 | unnamed (protein) chain 1: QVQLQQPGAELVKPGASVKMSCKASGYTFTSYNMHWVKQTPGRGLEWIGAIYPGNGDTSYNQKFKGKATLTADKSSSTAYMQLSSLTSEDSAVYYCARSTYYGGDWYFNVWGAGTTVTVSA chain 2: QIVLSQSPAILSASPGEKVTMTCRASSSVSYIHWFQQKPGSSPKPWIYATSNLASGVPVRFSGSGSGTSYSLTISRVEAEDAATYYCQQWTSNPPTFGGGTKLEIK | 11
14 | unnamed (protein) chain 1: EVQLVQSGGGLVKPGGSLRLSCAASGFTFSSYSMNWVRQAPGKGLEWVSSISSSSSYIYYADSVKGRFTISRDNAKNSLYLQMNSLRAEDTAVYYCARVTDAFDIWGQGTMVTVSS chain 2: DIQMTQSPSSVSASIGDRVTITCRASQGIDNWLGWYQQKPGKAPKLLIYDASNLDTGVPSRFSGSGSGTYFTLTISSLQAEDFAVYFCQQAKAFPPTFGGGTKVDIK | 4.1
15 | unnamed (protein) chain 1: QVQLVQSGSELKKPGASVKVSCKASGYTFTNYGMNWVRQAPGQGLEWMGWINTYTGEPTYADDFTGRFVFSLDTSVSTAYLQISSLKAEDTAVYYCARNPINYYGINYEGYVMDYWGQGTLVTVSS chain 2: not shown | 9.4
16 | unnamed (protein) chain 1: EVQLVESGGGLVQPGGSLRLSCAASGYEFSRSWMNWVRQAPGKGLEWVGRIYPGDGDTNYSGKFKGRFTISADTSKNTAYLQMNSLRAEDTAVYYCARDGSSWDWYFDVWGQGTLVTVSS chain 2: DIQMTQSPSSLSASVGDRVTITCRSSQSIVHSVGNTFLEWYQQKPGKAPKLLIYKVSNRFSGVPSRFSGSGSGTDFTLTISSLQPEDFATYYCFQGSQFPYTFGQGTKVEIK | 1.4
17 | unnamed (protein) chain 1: QVQLVESGGGVVQPGRSLRLSCTASGFTFKNYAMHWVRQAPAKGLEWVATISYDGRNIQYADSVKGRFTFSRDNSQDTLYLQLNSLRPEDTAVYYCARPVRSRWLQLGLEDAFHIWGQGTMVTVSS chain 2: AIRMTQSPSSFSASTGDRVTITCRASQDIRNYVAWYQQKSGKAPKFLIYAASTLQSGVPSRFSGSGSGTDFTLTINSLQSEDFATYYCQQYYNSPPTFGQGTRVEIT | 0
18 | unnamed (protein) chain 1: EVQLVESGGGLVQPGGSLRLSCAASGFTFSNYGMSWVRQAPGKGLEWVASISSGGGSTYYPDNVKGRFTISRDDAKNSLYLQMNSLRAEDTAVYYCARGGAGIDYWGQGTLVTVSS chain 2: DIQMTQSPSSLSASVGDRVTITCKSIQTLLYSSNQKNYLAWFQQKPGKAPKLLIYWASIRKSGVPSRFSGSGSGTDFTLTISSLQPEDLATYYCQQYYSYPLTFGGGTKLEIK | 0
19 | unnamed (protein) chain 1: EVQLVESGGGLVQPGGSLRLSCAASGYDFTHYGMNWVRQAPGKGLEWVGWINTYTGEPTYAADFKRRFTFSLDTSKSTAYLQMNSLRAEDTAVYYCAKYPYYYGTSHWYFDVWGQGTLVTVSS chain 2: DIQLTQSPSSLSASVGDRVTITCSASQDISNYLNWYQQKPGKAPKVLIYFTSSLHSGVPSRFSGSGSGTDFTLTISSLQPEDFATYYCQQYSTVPWTFGQGTKVEIK | 3.5
20 | unnamed (protein) chain 1: EVQLVQSGAEVKKPGASVKVSCKASGYTFTDYNMHWVRQAPGQGLEWMGEINPNSGGAGYNQKFKGRVTMTTDTSTSTAYMELRSLRSDDTAVYYCARLGYDDIYDDWYFDVWGQGTTVTVSS chain 2: DIQMTQSPSSLSASVGDRVTITCRASQDISNYLNWYQQKPGKAPKLLIYYTSRLLSGVPSRFSGSGSGTDFTLTISSLQPEDFATYYCQQGDTLPYTFGGGTKVEIK | 18.1
